Measured values taken from publication PMC9934072, “The mechanism of thia-Michael addition catalyzed by LanC enzymes” (Proceedings of the National Academy of Sciences of the …, 2023).
Ends that are not written are not given here.

How the values were obtained:
[1] = biological target: fluorescein-labeled Dha-Erk peptide; experiment: fluorescence polarisation; LanCL1 or variant titrated (highest 400 μM, 300 μM for some variants) against 20 nM fluorescein-peptide; 0.5 mM TCEP, 0.1 mM ZnCl2, 150 mM NaCl, 100 mM Tris pH 7.5, no GSH; 15 min incubation; triplicates
[2] = biological target: Fluorescein-labeled Erk peptide in which the Dha was substituted by L-Ala; experiment: fluorescence polarisation; fluorescein-labeled peptide with LanCL1 or its variants; in the absence of GSH to avoid catalytic turnover
[3] = biological target: T1, LanCL1 Wild Type (human LanC-like protein 1) (human, UniProt O43813 1-399); experiment: fluorescence polarisation; LanCL1 or variant titrated (highest 400 μM, 300 μM for some variants) against 20 nM fluorescein-peptide; 0.5 mM TCEP, 0.1 mM ZnCl2, 150 mM NaCl, 100 mM Tris pH 7.5, no GSH; 15 min incubation; triplicates; settings: both partners purified
T1 construct: LanC-like protein 1 (LanCL1), human; also called LanCL1 WT; WT-LanCL1; source: E. coli Rosetta 2 (DE3), purified (HisTrap Ni-NTA, PD-10 desalting)

[4] = biological target: T1, LanCL1 Wild Type (human LanC-like …); experiment: as above; settings: both partners purified; remark: listed apart in the source

T1 sequence (O43813 whole entry): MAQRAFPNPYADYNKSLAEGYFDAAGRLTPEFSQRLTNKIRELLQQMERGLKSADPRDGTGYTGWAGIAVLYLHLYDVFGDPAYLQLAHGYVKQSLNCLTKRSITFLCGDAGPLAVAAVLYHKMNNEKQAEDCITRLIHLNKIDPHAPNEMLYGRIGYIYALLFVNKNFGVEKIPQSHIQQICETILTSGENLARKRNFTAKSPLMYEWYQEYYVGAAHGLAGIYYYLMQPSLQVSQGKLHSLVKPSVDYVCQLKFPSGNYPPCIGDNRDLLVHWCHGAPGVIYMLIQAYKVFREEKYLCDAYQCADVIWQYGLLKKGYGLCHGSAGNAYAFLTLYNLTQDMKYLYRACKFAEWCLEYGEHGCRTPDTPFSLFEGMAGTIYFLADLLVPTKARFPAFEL

**Q.** “LanCL1 C264A/H277A (from UniProt O43813 1-399) (enzyme)” was tested. Which Kd [1] did it give?
**A.** The Kd was > 112 µM.

**Q.** How did the Kd [1] turn out when “LanCL1 C264A/H277K (from UniProt O43813 1-399) (enzyme)” was run?
**A.** Its Kd is > 470 µM.

**Q.** How did the Kd [1] turn out when “LanCL1 C264A/H277N (from UniProt O43813 1-399) (enzyme)” was run?
**A.** Its Kd is > 315 µM.

**Q.** Which fold weaker binding than Flu-Dha-Erk [2] does the source give for “human LanCL1, wild type (His6-LanCL1) (from UniProt O43813 1-399) (enzyme)” here?
**A.** Its fold weaker binding than Flu-Dha-Erk is 4 fold.

B1: fluorescein-labeled Ala-Erk peptide (peptide)
peptide: DHTGFLAEYVATR
modifications: also: fluorescein label, end not given here
notes: Numbers count on: the synthetic 13-mer; Its preparation is not described; also called Flu-Ala-Erk; fluorescein-Ala-Erk
**Q.** How did the Kd [3] turn out when B1 was run?
**A.** The Kd was > 133 µM.

**Q.** And the Kd [4]?
**A.** The Kd was 79.6 ± 7.6 µM.
